Results on one protein are retold here after article PMC6527350 (Journal of molecular biology, 2019).

The series deals with the molecule itself. The series can be described thus: FRET or BRET.

B1: PCNA-WC2-AEDANS (human PCNA N107W-T185C-C27M-W28F-C62M-C81S-C148S-C135S-C162S, labelled with AEDANS at C185) (natural protein)
chain: MFEARLVQGSILKKVLEALKDLINEAMFDISSSGVNLQSMDSSHVSLVQLTLRSEGFDTYRMDRNLAMGVNLTSMSKILKSAGNEDIITLRAEDNADTLALVFEAPWQEKVSDYEMKLMDLDVEQLGIPEQEYSSVVKMPSGEFARISRDLSHIGDAVVISSAKDGVKFSASGELGNGNIKLSQCSNVDKEEEAVTIEMNEPVQLTFALRYLNFFTKATPLSSTVTLSMSADVPLVVEYKIADMGHLKYYLAPKIEDEEGS
modifications: AEDANS on the cysteine at 185 (T185C), labelled with IAEDANS
Turning to B1, the binding result is on record as “binds”.
